Bridge positions count the residues as written; N and C are the ends. Square brackets hold non-standard residues; d marks the D form. Ends that are not written are not given here. * marks the point of attachment. Acetyl(2-(4-imidazolyl)) = O=C(Cc1c[nH]cn1)*; Aib = CC(C)(N)C(=O)O
T1: human GIP receptor (human, UniProt P48546 22-466)
T1 sequence (looked up): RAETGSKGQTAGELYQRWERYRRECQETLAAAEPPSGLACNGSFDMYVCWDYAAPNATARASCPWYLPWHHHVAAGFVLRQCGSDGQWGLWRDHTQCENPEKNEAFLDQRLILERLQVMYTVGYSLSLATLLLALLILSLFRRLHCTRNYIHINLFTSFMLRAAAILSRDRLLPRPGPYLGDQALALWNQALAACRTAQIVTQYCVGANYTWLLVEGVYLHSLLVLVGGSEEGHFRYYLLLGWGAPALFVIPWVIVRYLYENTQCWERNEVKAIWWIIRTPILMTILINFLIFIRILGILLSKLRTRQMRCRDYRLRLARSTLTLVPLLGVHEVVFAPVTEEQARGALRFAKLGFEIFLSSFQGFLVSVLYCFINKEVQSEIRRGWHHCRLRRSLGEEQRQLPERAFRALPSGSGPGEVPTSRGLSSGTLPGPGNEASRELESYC

B1: triple agonist of SEQ ID NO: 84 (peptide)
peptide: {Acetyl(2-(4-imidazolyl))}-[Aib]EGTFTSDYSIAMDEIHQKDFVDWLLAEC
modifications: bridge 15-19; numbers in words are those of the source; also: ring between positions 16 and 20, type not given here
B2: triple agonist of SEQ ID NO: 81 (peptide)
peptide: {Acetyl(2-(4-imidazolyl))}-[Aib]QGTFTSDYSKYLDEKRQKEFVQWLLNTC
modifications: bridge 15-19; numbers in words are those of the source; also: ring between positions 16 and 20, type not given here
B3: triple agonist of SEQ ID NO: 82 (peptide)
peptide: {Acetyl(2-(4-imidazolyl))}-[Aib]QGTFTSDYSKYLDEKRQKEFVQWLLDTC
modifications: bridge 15-19; numbers in words are those of the source; also: ring between positions 16 and 20, type not given here
B4: triple agonist of SEQ ID NO: 86 (peptide)
peptide: {Acetyl(2-(4-imidazolyl))}-[Aib]QGTFTSDYSKYLDEKRQKEFVNWLLAQC
modifications: bridge 15-19; numbers in words are those of the source; also: ring between positions 16 and 20, type not given here

Assays:
Test in all cases: cell-based or functional assay
human GIP receptor = molecular target: T1, human GIP receptor
human GLP-1 receptor = human GLP-1 receptor (human, UniProt P43220 24-463)
human GCG receptor = human GCG receptor (human, UniProt P47871 26-477)
Sequence of human GCG receptor (P47871 26-477): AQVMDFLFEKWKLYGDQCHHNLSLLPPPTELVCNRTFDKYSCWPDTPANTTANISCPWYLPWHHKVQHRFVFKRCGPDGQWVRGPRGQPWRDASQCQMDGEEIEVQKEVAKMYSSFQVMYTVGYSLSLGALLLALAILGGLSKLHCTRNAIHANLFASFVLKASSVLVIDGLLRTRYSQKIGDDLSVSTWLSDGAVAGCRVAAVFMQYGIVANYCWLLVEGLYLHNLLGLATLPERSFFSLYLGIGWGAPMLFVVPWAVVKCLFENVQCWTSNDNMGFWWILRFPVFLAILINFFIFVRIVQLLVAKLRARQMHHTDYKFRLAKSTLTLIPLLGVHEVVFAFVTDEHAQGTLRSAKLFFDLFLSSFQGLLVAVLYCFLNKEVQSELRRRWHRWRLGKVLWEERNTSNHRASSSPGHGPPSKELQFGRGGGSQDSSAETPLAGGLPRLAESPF

Binder | In vitro activity (%) compared with native peptide, vs GIP (human GIP receptor) [%] | In vitro activity (%) compared with native peptide, vs GLP-1 (human GLP-1 receptor) [%] | In vitro activity (%) compared with native peptide, vs Glucagon (human GCG receptor) [%]
H[Aib]QGTFTSDYSKCLDEKRAKEFVQWLLDHHPSSGQPPPS (bridge 16-20) [triple agonist of SEQ ID NO: 65] | 11.6 | 95.4 | 25.2
[Acetyl(2-(4-imidazolyl))][Aib]EGTFTSDYSIAMDEIHQKDFVNWLLAQC (bridge 16-20; not fully specified) [triple agonist of SEQ ID NO: 83] | 0.4 | 47.3 | 1.3
H[Aib]QGTFTSDVSKYLDGQAAQEFVAWLLAGC [triple agonist of SEQ ID NO: 9] | < 0.1 | 32.1 | 0.13
H[Aib]QGTFTSDVSKYLDGQAAQEFVAWLLKGC [triple agonist of SEQ ID NO: 8] | < 0.1 | 14.2 | 0.1
Y[Aib]QGTFTSDYSKCLDEKAAKEFVQWLLDHHPSSGQPPPS (bridge 16-20) [triple agonist of SEQ ID NO: 68] | 107 | 27.9 | 8.8
Y[Aib]QGTFTSDYSKYLDECAAKEFVQWLLDHHPSSGQPPPS (bridge 16-20) [triple agonist of SEQ ID NO: 64] | 92.9 | 64.6 | 60.1
B1 | < 0.1 | 4.2 | < 0.1
[Acetyl(2-(4-imidazolyl))][Aib]QGTFTSDYSIAMDEIHQKDFVNWLLAQC (bridge 16-20; not fully specified) [triple agonist of SEQ ID NO: 85] | 0.3 | 4.3 | < 0.1
{Acetyl(2-(4-imidazolyl))}-[Aib]QGTFTSDYSKCLDEKRAKEFVQWLLDHHPSSGQPPPS (bridge 15-19) [triple agonist of SEQ ID NO: 74] | 1 | 12.9 | 0.9
[Acetyl(2-(4-imidazolyl))][Aib]QGTFTSDCSKYLDERAAQDFVQWLLDGGPSSGAPPPS (not fully specified) [triple agonist of SEQ ID NO: 63] | < 0.1 | 15.3 | < 0.1
Y[Aib]QGTFTSDYSKCLDEKRAKDFVQWLLDHHPSSGQPPPS (bridge 16-20) [triple agonist of SEQ ID NO: 70] | 64.4 | 15.1 | 71.3
B2 | < 0.1 | 7.8 | 0.3
Y[Aib]QGTFTSDYSKCLDERAAKEFVQWLLDHHPSSGQPPPS (bridge 16-20) [triple agonist of SEQ ID NO: 69] | 62.8 | 24.3 | 9.6
Y[Aib]QGTFTSDYSKYLDEKAAKEFVQWLLDHHPSSGQPPPSC (bridge 16-20) [triple agonist of SEQ ID NO: 75] | 18 | 35.1 | 8.5
Y[Aib]QGTFTSDYSKYLDECAAKDFVQWLLDHHPSSGQPPPS (bridge 16-20) [triple agonist of SEQ ID NO: 67] | 39.8 | 28.5 | 46.2
Y[Aib]QGTFTSDYSKYLDEKRAKDFVQWLLDHHPSSGQPPPSC (bridge 16-20; also: ring between positions 16 and 20, type not given here) [triple agonist of SEQ ID NO: 76] | 11.7 | 10.3 | 47.6
B3 | < 0.1 | 9.5 | 1.1
H[Aib]QGTFTSDVSKYLDGQAAKEFVAWLLKGC [triple agonist of SEQ ID NO: 7] | < 0.1 | 13.7 | < 0.1
Y[Aib]QGTFTSDYSKYLDECRAKDFVQWLLDHHPSSGQPPPS (bridge 16-20) [triple agonist of SEQ ID NO: 66] | 17.2 | 15.8 | 172
B4 | 0.2 | 28.4 | 0.4
Y[Aib]QGTFTSDCSKYLDERAAKDFVQWLLDHHPSSGQPPPS (bridge 16-20) [triple agonist of SEQ ID NO: 72] | 1.6 | 11.5 | 1
H[Aib]EGTFTSDYSIAMDEIHQKDFVNWLLAQKC (bridge 16-20; not fully specified) [triple agonist of SEQ ID NO: 79] | 1.4 | 41.5 | 4.9
Y[Aib]QGTFTSDYSKYLDERACKDFVQWLLDHHPSSGQPPPS (bridge 16-20) [triple agonist of SEQ ID NO: 71] | 94.7 | 90.1 | 12.7
H[Aib]QGTFTSDYSKYLDEKRQKEFVQWLLDTKC (bridge 16-20; also: ring between positions 16 and 20, type not given here) [triple agonist of SEQ ID NO: 78] | 0.12 | 51 | 14
Y[Aib]QGTFTSDYSKYLDEKAAKDFVQWLLDHHPSSGQPPPSC (bridge 16-20; also: ring between positions 16 and 20, type not given here) [triple agonist of SEQ ID NO: 77] | 35.5 | 38.7 | 12.2
{Acetyl(2-(4-imidazolyl))}-[Aib]QGTFTSDYSKYLDECRAKEFVQWLLDHHPSSGQPPPS (bridge 15-19) [triple agonist of SEQ ID NO: 73] | 3 | 22.6 | 5.4

From US20230355720A1, “PHARMACEUTICAL COMPOSITION FOR PREVENTING OR TREATING BONE DISEASES, COMPRISING TRIPLE AGONIST OR CONJUGATE THEREOF HAVING ACTIVITY WITH RESPECT TO ALL OF GLUCAGON, GLP-1 AND GLP RECEPTORS” (HANMI PHARM. CO., LTD., priority 2020, published 2023)
